Reference: patent US20250222105A1 (University of Texas, published 2025)
Changes are numbered by the printed parent chain.

B1: anti-ROR1 monoclonal antibody A148 (antibody, V domains shown)
VH: DVQLQESGPGLVKPSQSLSLTCSVSGYSITSGYYWNWIRQFPGNKLEWMGYISNDGSNKYKPSLKNRISITRDTSKNQFFLKLNSVTTEDTATYYCARFPLINYDPWLAYWGQGTLVTVSA
VL: DVLMTQTPLSLPVSLGDQASISCRSSQNVVHRNGNTYLEWYLQKPGQSPKLLIYKVSNRFSGVPDRFSGSGSGTDFTLKISRVEAEDLGVYYCFQGSHVPWTFGGGTKLEIK
notes: Mouse monoclonal antibody from hybridoma
B2: anti-ROR1 monoclonal antibody A142 (antibody, V domains shown)
VH: EVQLQQSGPDLVKPGASVKISCKASGYSFTGYYMHWVKQSHGKSLEWIGRVYPNNGGTSYNQKFKGKAILTVDKSSTTAYMELRSLTSEDSAVYYCALIHYYGFYSMDYWGQGTSVTVSS
VL: B1 VL with N28S, V29I, R32S, K112N
notes: as for B1
B3: anti-ROR1 monoclonal antibody A130 (antibody, V domains shown)
VH: B1 VH with S25T, S53R, K59N, K61N, L108F
VL: ETTVTQSPASLSVATGEKVTIRCITSTDIDDDMNWYQQKPGEPPKLLISEANTLRPGVPSRFSSSGYGTDFVFTIENTLSEDVADYYCLQSYNMPLTFGAGTTLELK
notes: as for B1
B4: anti-ROR1 monoclonal antibody A129 (antibody, V domains shown)
VH: B1 VH with S25T, S53R, K59N, K61N, L108F
VL: B1 VL with T7A
notes: as for B1
B5: anti-ROR1 monoclonal antibody A89 (antibody, V domains shown)
VH: B1 VH with N36S, N84K
VL: B1 VL with N28S, V29I, R32S, K112N
notes: Mouse monoclonal antibody from hybridoma (BALB/c mice immunized with ROR1-expressing L cells)
B6: anti-ROR1 monoclonal antibody A140 (antibody, V domains shown)
VH: B1 VH with S57N, T88A
VL: B1 VL with N28S, V29I, R32S, K112N
notes: as for B1
B7: anti-ROR1 monoclonal antibody A97 (antibody, V domains shown)
VH: EVQLQQSGPELEKPGASVKISCKASGYSFIGYSMNWVRQSDGKSLEWIGNIDPYYGGTSYNLKFKGKATLTVDKSSSTAYMQLKSLTSEDSAVYYCARLGRGYFDYWGQGTTLTVSS
VL: DIVLTQSPATLSVTPGDSVSLSCRASQSITNNLHWYQQKSHESPRLLIKSASQSISGIPSRFSGSGSGTDFTLSINSVETEDFGMYFCQQSNSWPHTFGGGTKLEIK
notes: as for B1

Each binder was assayed against T1, human receptor tyrosine kinase like orphan receptor 1 (ROR1) expressed on cells (human, UniProt Q01973 30-937) (assay: cell ELISA and flow cytometry on L cells transfected with human ROR1; also positive staining of ROR1+ lymphoma lines Jeko-1, SP-53, CA46).
T1 construct: whole, on cells; also called human ROR1; ROR1-L cells

| binding result | Binder |
| --- | --- |
| binds | B1 |
| binds | B2 |
| binds | B3 |
| binds | B4 |
| binds | B5 |
| binds | B6 |
| binds | B7 |
